Test results reported in paper PMC6247401, “Macrophage LRP1 Promotes Diet-Induced Hepatic Inflammation and Metabolic Dysfunction by Modulating Wnt Signaling” (Mediators of Inflammation, 2018).

Biological target: T1, low-density lipoprotein receptor-related protein 1 (LRP1) (UniProt Q07954 20-4544)
T1 construct: low-density lipoprotein receptor-related protein 1 (LRP1), full length, purified from placenta; also called full-length LRP1; purified LRP1
Assay: SPR; Biacore 3000; full-length LRP1 amine-coupled to a CM5 chip; sFRP-5 (1.6-100 nmol/l) flowed over at 20 ul/min, 25°C, in HBS-P (0.01 M HEPES pH 7.4, 0.15 M NaCl, 0.005% P20) with 1 mM CaCl2; Req from a pseudo-first order fit with a nonspecific component, plotted against concentration and fitted to a single class of sites
Conditions: both partners purified

T1 sequence (Q07954 20-4544): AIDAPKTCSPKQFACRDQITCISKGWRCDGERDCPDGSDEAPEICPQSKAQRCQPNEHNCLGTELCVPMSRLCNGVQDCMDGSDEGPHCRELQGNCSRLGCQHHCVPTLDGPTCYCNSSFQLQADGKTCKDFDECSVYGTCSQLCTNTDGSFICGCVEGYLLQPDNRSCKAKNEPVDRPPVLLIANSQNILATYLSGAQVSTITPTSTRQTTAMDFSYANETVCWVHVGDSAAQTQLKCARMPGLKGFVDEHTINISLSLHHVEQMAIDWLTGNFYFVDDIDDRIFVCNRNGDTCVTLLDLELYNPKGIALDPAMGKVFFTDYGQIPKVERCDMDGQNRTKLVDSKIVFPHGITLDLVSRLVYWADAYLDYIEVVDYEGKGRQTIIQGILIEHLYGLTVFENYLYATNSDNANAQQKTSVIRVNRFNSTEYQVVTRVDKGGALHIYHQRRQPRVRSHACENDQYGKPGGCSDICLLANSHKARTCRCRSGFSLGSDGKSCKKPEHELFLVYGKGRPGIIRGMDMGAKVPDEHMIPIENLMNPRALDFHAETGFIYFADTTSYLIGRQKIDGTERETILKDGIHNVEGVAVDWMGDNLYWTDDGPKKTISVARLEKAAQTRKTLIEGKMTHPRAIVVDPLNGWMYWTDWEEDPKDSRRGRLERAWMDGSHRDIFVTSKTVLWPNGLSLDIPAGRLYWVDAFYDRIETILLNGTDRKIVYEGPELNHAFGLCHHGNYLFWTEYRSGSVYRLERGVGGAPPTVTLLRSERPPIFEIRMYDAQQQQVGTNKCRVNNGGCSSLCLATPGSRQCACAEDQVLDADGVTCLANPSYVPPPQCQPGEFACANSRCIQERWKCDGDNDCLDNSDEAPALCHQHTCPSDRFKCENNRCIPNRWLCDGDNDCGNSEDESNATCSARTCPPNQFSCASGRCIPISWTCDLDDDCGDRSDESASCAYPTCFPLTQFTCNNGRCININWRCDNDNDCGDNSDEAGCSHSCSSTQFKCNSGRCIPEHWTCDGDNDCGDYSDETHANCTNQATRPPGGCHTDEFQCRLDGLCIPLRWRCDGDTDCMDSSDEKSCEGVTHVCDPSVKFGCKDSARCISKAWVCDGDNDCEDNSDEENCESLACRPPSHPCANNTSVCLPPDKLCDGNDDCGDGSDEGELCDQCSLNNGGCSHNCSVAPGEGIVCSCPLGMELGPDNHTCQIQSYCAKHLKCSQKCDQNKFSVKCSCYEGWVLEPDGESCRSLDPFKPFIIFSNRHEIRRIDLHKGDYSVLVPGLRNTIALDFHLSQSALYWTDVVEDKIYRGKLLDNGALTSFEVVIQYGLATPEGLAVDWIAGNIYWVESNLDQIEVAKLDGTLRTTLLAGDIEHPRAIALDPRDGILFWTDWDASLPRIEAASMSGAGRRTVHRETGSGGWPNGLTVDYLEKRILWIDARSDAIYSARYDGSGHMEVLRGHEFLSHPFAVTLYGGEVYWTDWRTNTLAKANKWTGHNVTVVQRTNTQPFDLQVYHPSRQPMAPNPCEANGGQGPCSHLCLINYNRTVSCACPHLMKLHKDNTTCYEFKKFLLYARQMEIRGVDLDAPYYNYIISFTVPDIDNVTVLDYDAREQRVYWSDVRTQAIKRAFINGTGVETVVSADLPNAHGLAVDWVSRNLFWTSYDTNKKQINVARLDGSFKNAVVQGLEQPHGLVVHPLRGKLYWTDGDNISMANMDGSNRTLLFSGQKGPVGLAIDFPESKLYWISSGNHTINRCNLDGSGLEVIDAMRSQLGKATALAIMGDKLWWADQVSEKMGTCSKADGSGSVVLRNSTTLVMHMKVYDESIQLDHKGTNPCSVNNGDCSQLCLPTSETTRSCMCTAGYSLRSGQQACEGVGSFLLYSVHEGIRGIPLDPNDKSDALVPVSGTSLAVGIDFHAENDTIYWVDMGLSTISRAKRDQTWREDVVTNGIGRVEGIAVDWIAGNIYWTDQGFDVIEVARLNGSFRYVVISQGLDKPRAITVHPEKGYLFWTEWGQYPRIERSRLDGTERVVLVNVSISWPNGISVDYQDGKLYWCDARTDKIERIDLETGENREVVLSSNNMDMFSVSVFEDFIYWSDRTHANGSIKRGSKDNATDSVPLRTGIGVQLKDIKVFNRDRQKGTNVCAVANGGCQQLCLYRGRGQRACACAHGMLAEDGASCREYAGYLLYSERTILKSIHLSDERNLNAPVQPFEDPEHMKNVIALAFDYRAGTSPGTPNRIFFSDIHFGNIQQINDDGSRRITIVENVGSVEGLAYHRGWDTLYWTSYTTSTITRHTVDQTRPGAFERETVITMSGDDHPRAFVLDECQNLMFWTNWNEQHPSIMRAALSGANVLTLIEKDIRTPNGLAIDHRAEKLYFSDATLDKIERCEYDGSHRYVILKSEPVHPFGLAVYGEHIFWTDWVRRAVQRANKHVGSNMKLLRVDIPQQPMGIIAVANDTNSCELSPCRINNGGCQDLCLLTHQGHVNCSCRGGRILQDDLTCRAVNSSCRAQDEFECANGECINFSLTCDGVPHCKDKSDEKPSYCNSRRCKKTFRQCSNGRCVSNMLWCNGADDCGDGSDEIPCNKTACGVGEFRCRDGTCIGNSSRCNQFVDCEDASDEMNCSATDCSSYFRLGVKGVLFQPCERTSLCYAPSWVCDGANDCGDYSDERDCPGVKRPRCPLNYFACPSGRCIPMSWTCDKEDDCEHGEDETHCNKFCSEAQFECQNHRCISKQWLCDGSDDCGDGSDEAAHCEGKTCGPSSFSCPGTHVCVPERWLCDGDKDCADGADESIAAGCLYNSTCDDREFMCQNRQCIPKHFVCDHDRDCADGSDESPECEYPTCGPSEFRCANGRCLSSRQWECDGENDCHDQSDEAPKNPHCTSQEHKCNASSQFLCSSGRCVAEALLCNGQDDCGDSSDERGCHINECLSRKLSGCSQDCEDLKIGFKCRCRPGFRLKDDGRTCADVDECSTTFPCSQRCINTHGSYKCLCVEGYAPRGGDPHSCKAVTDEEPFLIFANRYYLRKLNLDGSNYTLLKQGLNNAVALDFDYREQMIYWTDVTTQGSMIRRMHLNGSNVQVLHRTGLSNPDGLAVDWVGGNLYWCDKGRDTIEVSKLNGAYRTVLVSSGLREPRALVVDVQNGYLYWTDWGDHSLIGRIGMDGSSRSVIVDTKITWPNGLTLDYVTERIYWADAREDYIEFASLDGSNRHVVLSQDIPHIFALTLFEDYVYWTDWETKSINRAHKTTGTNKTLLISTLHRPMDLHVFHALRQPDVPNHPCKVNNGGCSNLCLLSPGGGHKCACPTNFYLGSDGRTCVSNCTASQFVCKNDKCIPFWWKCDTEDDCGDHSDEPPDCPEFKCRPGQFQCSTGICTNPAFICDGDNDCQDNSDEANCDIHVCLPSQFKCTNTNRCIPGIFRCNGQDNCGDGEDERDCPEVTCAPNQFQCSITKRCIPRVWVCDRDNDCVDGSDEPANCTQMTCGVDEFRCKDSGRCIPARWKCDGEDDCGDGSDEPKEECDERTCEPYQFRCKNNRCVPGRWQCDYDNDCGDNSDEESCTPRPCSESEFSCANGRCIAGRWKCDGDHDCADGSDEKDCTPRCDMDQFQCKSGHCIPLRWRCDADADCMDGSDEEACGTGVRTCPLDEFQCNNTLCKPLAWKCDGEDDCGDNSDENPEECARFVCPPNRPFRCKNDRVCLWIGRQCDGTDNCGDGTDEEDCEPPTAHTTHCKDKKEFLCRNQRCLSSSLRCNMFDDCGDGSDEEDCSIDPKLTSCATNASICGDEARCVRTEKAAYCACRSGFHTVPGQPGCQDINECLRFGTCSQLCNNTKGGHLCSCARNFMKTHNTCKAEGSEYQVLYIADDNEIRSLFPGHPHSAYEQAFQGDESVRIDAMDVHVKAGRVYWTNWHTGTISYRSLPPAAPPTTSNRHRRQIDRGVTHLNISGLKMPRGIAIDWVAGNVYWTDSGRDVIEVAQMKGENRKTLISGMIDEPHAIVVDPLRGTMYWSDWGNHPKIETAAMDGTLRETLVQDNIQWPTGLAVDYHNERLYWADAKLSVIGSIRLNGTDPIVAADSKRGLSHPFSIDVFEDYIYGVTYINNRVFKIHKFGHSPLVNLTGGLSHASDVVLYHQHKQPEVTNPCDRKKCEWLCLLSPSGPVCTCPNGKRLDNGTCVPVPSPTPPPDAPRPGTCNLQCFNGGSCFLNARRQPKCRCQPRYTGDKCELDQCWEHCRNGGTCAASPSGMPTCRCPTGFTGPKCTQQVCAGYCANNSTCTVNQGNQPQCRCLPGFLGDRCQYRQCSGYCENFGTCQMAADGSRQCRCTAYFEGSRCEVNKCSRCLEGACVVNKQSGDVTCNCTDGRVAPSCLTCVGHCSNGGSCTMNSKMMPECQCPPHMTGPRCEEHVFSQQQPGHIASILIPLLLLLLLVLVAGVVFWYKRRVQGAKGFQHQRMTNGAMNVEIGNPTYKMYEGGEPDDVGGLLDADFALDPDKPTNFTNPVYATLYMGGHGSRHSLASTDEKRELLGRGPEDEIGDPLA

Kd: 32 nM
B1: secreted frizzled-related protein 5 (sFRP-5) (ligand, UniProt Q5T4F7 30-317, looked up)
chain: EEYDYYGWQAEPLHGRSYSKPPQCLDIPADLPLCHTVGYKRMRLPNLLEHESLAEVKQQASSWLPLLAKRCHSDTQVFLCSLFAPVCLDRPIYPCRSLCEAVRAGCAPLMEAYGFPWPEMLHCHKFPLDNDLCIAVQFGHLPATAPPVTKICAQCEMEHSADGLMEQMCSSDFVVKMRIKEIKIENGDRKLIGAQKKKKLLKPGPLKRKDTKRLVLHMKNGAGCPCPQLDSLAGSFLVMGRKVDGQLLLMAVYRWDKKNKEMKFAVKFMFSYPCSLYYPFFYGAAEPH
notes: secreted frizzled-related protein 5 (sFRP-5), commercial recombinant protein; source: bought: R&D Systems 6266-SF-050
